Assay results taken from patent US20250296973A1, “TREATMENT METHOD USING MAZDUTIDE” (Innovent Biologics (Suzhou) Co., Ltd., priority 2022, published 2025).
Starred links: 1 amine or outer side, 2 acyl side, 3 side chain; linkers in the order of their positions; H or OH if unused. Non-standard residues stand in square brackets, D forms with d. Groups on a side chain read outwards from the residue. No end group written: not given here. *: point of attachment. C20 diacid = O=C(O)CCCCCCCCCCCCCCCCCCC(=O)*; γGlu = O=C(O)[C@H](CCC(=O)[*:2])N[*:1]; AEEA = NCCOCCOCC(=O)O; Aib = CC(C)(N)C(=O)O

Columns and labels:
[1] = Clinical trial of mazdutide dosing regimen (Example 1, 5 cohorts, overweight or obese subjects); type: in vivo, human; details: for least squares mean of percent change from baseline in body weight: sc once weekly, after 12 weeks
Text: The contents in the vial were reconstituted in sterile water for injection to give a clear solution of mazdutide.
• 1. Aged 18-75 years (inclusive), male or female. • 2. For obesity, BMI≥28.0 kg/m^2; for overweight, 24≤BMI<28.0 kg/m^2 with at least one of the following: i, increased appetite, intolerable hunger before meals, and increased food consumption; ii, comorbidity with one or more of pre-diabetes (impaired fasting glucose and/or impaired glucose tolerance), hypertension, dyslipidemia, and fatty liver (within 6 months before the screening); iii, comorbidity with weight-bearing joint pain; iv, obesity-related dyspnea or obstructive sleep apnea syndrome. • 3. Weight change <5% after at least 12 weeks of diet/exercise weight control alone at the time of screening.
• 1. Use of any of the following drugs or treatments before the screening: • 1) previous use of either GLP-1 receptor (GLP-1R) agonists or GLP-1R/GCGR agonists; • 2) use of drugs that may have an effect on body weight within 3 months before the screening, including: systemic steroid hormone therapy (intravenous, oral, or intraarticular administration), metformin, SGLT2 inhibitors, thiazolidinediones (TZD), tricyclic antidepressants, psychotropic agents, or sedatives (e.g., imipramine, amitriptyline, mirtazapine, paroxetine, phenelzine, chlorpromazine, thioridazine, clozapine, olanzapine, valproic acid, valproic acid derivatives, and lithium salts), and the like; • 3) use of Chinese herbal medicines or health care products that may have an effect on body weight within 3 months before the screening; • 4) previous or current use of weight-loss drugs within 3 months before the screening, such as: sibutramine hydrochloride, orlistat, phentermine, phenylpropanolamine, mazindol, phentermine, amfepramone, lorcaserin, compounded phentermine/topiramate, compounded […], etc.; • 5) participation in other clinical trials (reception of the test drug treatment) within 3 months before the screening. • 2. […] Alcohol abuse is defined as: over 21 units for men or over 14 units for women weekly on average, or unwillingness to cease drinking within 24 hours before dosing and throughout the study period (one unit=360 mL of beer, or 150 mL of wine, or 45 mL of distilled spirits); • 21) drug abuse and positivity in a urine test for drugs at the time of screening. • 3. Any one of the laboratory tests meets the following criteria (those of proper reasons at the time of screening can be re-examined within one week, and the reason for retesting should be documented by the investigator): • 1) serum calcitonin ≥15 ng/L at the time of screening; • 2) at the time of screening, alanine aminotransferase ≥2.0×ULN and/or aspartate aminotransferase ≥2.0×ULN and/or total bilirubin ≥1.0×ULN and/or alkaline phosphatase ≥2.0×ULN; • 3) glomerular filtration rate eGFR<60 mL/min/1.73 m^2 at the time of screening, as estimated using the CKD-EPI equation; • 4) abnormal thyroid function (FT3, FT4, or TSH) at the time of screening; • 5) fasting triglyceride >5.64 mmol/L (500 mg/dL) at the time of screening: if the patient is receiving a lipid-regulating treatment, the dose of the treatment must be stable for 30 days before the screening; • 6) blood amylase or lipase >2.0×ULN at the time of screening; • 7) an international normalized ratio (INR) of prothrombin time greater than the upper limit of the normal range at the time of screening. • 4. Heart rate <50 beats/min or >90 beats/min as measured by 12-lead electrocardiogram (ECG) at the time of screening. • 5. Clinically significant abnormality in 12-lead ECG at the time of screening: atrioventricular block degree II or degree III, long QT syndrome or QTcF>450 ms (see Attachment 3 for the formula), PR interval <120 ms or PR interval >220 ms, QRS>120 ms, left or right bundle branch block, pre-excitation syndrome or severe arrhythmia requiring treatment in the absence of cardiac pacemaker. • 6. […]

[2] = 3.0-6.0-9.0 mg QW sc, after 24 consecutive weeks

Question: Which results are given for “mazdutide (H[Aib]QGTFTSDYSKYLDEKKAK([AEEA-AEEA-γGlu-C20 diacid])EFVEWLLEGGGPSSG-NH2; N-terminus assumed; SMILES CC(C)C[C@H](NC(=O)[C@H](CC(C)C)NC(=O)[C@H](Cc1c[nH]c2ccccc12)NC(=O)[C@H](CCC(=O)O)NC(=O)[C@@H](NC(=O)[C@H](Cc1ccccc1)NC(=O)[C@H](CCC(=O)O)NC(=O)[C@H](CCCCNC(=O)COCCOCCNC(=O)COCCOCCNC(=O)CC[C@H](NC(=O)CCCCCCCCCCCCCCCCCCC(=O)O)C(=O)O)NC(=O)[C@H](C)NC(=O)[C@H](CCCCN)NC(=O)[C@H](CCCCN)NC(=O)[C@H](CCC(=O)O)NC(=O)[C@H](CC(=O)O)NC(=O)[C@H](CC(C)C)NC(=O)[C@H](Cc1ccc(O)cc1)NC(=O)[C@H](CCCCN)NC(=O)[C@H](CO)NC(=O)[C@H](Cc1ccc(O)cc1)NC(=O)[C@H](CC(=O)O)NC(=O)[C@H](CO)NC(=O)[C@@H](NC(=O)[C@H](Cc1ccccc1)NC(=O)[C@@H](NC(=O)CNC(=O)[C@H](CCC(N)=O)NC(=O)C(C)(C)NC(=O)[C@@H](N)Cc1c[nH]cn1)[C@@H](C)O)[C@@H](C)O)C(C)C)C(=O)N[C@@H](CCC(=O)O)C(=O)NCC(=O)NCC(=O)NCC(=O)N1CCC[C@H]1C(=O)N[C@@H](CO)C(=O)N[C@@H](CO)C(=O)NCC(N)=O)”?
Answer: TEAEs resulting in permanent drug withdrawal ([1]; all 5 cohorts): no TEAEs resulting in permanent drug withdrawal occurred; severe TEAEs ([1]; all 5 cohorts): no severe TEAEs were reported; severe hypoglycemic events ([1]; all 5 cohorts): no severe hypoglycemic events occurred; severity of treatment emergent adverse events (TEAEs) ([1]; all 5 cohorts): Most treatment emergent adverse events (TEAEs) were mild; treatment emergent serious adverse events (TESAEs) ([1]; all 5 cohorts): no treatment emergent serious adverse events (TESAEs) occurred; least squares mean of percent change from baseline in body weight ([1]; cohort 2: 1.5 mg 4 wk + 3.0 mg 4 wk + 4.5 mg 4 wk): −6.40%; least squares mean of percent change from baseline in body weight ([1]; cohort 3: 2.0 mg 4 wk + 4.0 mg 4 wk + 6.0 mg 4 wk): −6.05%; least squares mean of percent change from baseline in body weight ([1]; cohort 5: 3.0 mg 4 wk + 6.0 mg 4 wk + 9.0 mg 4 wk): −11.7%; weight loss effect at week 12 in indirect comparison with similar drugs ([1]; cohort 5 regimen vs 2.4 mg Semaglutide and 10 mg or 15 mg Tirzepatide regimens, FIG. 6): particularly pronounced weight loss effect; improvement of blood pressure, blood lipid and serum uric acid levels ([1]; different doses in 5 cohorts, FIGS. 3-5 for cohorts 4 and 5): good beneficial effects; subjects with body weight reduced by at least 5% from baseline [2]: 81.7%; subjects with body weight reduced by at least 10% from baseline [2]: 65.0%; subjects with body weight reduced by at least 15% from baseline [2]: 31.7%; subjects with body weight reduced by at least 20% from baseline [2]: 21.7%; dropout rate of the treatment group (human, in vivo): lower than that of the placebo group overall; early termination of treatment due to adverse events (human, in vivo): no subject in the treatment group has terminated treatment in advance due to adverse events; most common treatment emergent adverse events (human, in vivo): gastrointestinal-related adverse events; serious adverse events (human, in vivo): no serious adverse event has occurred
